Reference: patent US20230338555A1 (IONIS PHARMACEUTICALS, published 2023)
Like-named read-outs stand apart in the source and are kept apart here.

What was measured:
Experiment in all cases: cell-based or functional assay
[1] = biological target: T1, human sortilin stably expressed on HEK 293 cells (HEK-SORT1 cells) (human, UniProt Q99523 78-831)
T1 sequence (looked up): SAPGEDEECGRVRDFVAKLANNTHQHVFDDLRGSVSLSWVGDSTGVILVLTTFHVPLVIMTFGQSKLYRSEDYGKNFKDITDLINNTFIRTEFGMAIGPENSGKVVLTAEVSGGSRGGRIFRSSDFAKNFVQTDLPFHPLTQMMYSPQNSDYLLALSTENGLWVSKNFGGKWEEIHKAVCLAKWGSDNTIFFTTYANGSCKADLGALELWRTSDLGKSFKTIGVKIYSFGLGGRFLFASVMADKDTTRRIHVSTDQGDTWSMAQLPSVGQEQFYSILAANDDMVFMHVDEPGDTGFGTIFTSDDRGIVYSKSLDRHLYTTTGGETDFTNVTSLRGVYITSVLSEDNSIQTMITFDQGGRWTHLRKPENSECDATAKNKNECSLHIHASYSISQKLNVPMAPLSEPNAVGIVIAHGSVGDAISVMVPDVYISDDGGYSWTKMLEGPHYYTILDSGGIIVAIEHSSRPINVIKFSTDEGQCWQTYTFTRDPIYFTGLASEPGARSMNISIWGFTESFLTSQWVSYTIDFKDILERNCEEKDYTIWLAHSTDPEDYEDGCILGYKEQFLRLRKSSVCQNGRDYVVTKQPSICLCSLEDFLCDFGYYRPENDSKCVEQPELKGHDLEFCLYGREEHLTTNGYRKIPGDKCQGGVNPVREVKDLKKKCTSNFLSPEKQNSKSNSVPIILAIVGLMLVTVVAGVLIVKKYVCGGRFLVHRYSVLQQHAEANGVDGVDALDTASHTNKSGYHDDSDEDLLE

[2] = biological target: T1, human sortilin stably expressed on HEK …; remark: listed apart in the source
[3] = biological target: T1, human sortilin stably expressed on HEK …; remark: listed apart in the source
[4] = biological target: T1, human sortilin stably expressed on HEK …; remark: listed apart in the source
[5] = biological target: T1, human sortilin stably expressed on HEK …; remark: listed apart in the source
[6] = biological target: T1, human sortilin stably expressed on HEK …; remark: listed apart in the source

B1: Compound No. 1162754, KNT neurotensin peptide conjugated to 20-mer uniform 2'-MOE phosphodiester oligonucleotide with 3'-Cy3 (peptide)
peptide: XLYENKPRRPYIL
modifications: not fully specified; position 1 printed dK (X = 2-azido-acetyl lysine); side chain joined via triazolo-BCN carbamate / 6-aminohexanol linker to the 5' end of oligonucleotide … (SEQ ID NO 2, uniform MOE, phosphodiester, 3'-Cy3)
- Mean Fluorescence Intensity (MFI), uptake 37C-4C, at 12 nM [1]: 43 MFI
- Mean Fluorescence Intensity (MFI), uptake 37C-4C, at 37 nM [1]: 54 MFI
- Mean Fluorescence Intensity (MFI), uptake 37C-4C, at 111 nM [1]: 71 MFI
- Mean Fluorescence Intensity (MFI), uptake 37C-4C, at 333 nM [1]: 171 MFI
- Mean Fluorescence Intensity (MFI), uptake 37C-4C, at 1000 nM [1]: 293 MFI
- Mean Fluorescence Intensity (MFI), uptake 37C-4C, at 12 nM [2]: 38 MFI
- Mean Fluorescence Intensity (MFI), uptake 37C-4C, at 37 nM [2]: 47 MFI
- Mean Fluorescence Intensity (MFI), uptake 37C-4C, at 333 nM [2]: 143 MFI
- Mean Fluorescence Intensity (MFI), uptake 37C-4C, at 1000 nM [2]: 371 MFI
- Mean Fluorescence Intensity (MFI), uptake 37C-4C, at 12 nM [3]: 43 MFI
- Mean Fluorescence Intensity (MFI), uptake 37C-4C, at 37 nM [3]: 54 MFI
- Mean Fluorescence Intensity (MFI), uptake 37C-4C, at 111 nM [3]: 71 MFI
- Mean Fluorescence Intensity (MFI), uptake 37C-4C, at 333 nM [3]: 171 MFI
- Mean Fluorescence Intensity (MFI), uptake 37C-4C, at 1000 nM [3]: 293 MFI
- Mean Fluorescence Intensity (MFI), uptake 37C-4C, at 12 nM [4]: 54 MFI
- Mean Fluorescence Intensity (MFI), uptake 37C-4C, at 37 nM [4]: 66 MFI
- Mean Fluorescence Intensity (MFI), uptake 37C-4C, at 111 nM [4]: 101 MFI
- Mean Fluorescence Intensity (MFI), uptake 37C-4C, at 333 nM [4]: 205 MFI
- Mean Fluorescence Intensity (MFI), uptake 37C-4C, at 1000 nM [4]: 370 MFI
- Mean Fluorescence Intensity (MFI), uptake 37C-4C, at 12 nM [5]: 67 MFI
- Mean Fluorescence Intensity (MFI), uptake 37C-4C, at 111 nM [5]: 85 MFI
- Mean Fluorescence Intensity (MFI), uptake 37C-4C, at 333 nM [5]: 123 MFI
- Mean Fluorescence Intensity (MFI), uptake 37C-4C, at 1000 nM [5]: 192 MFI
- Mean Fluorescence Intensity (MFI), uptake 37C-4C, at 3000 nM [5]: 427 MFI
- Mean Fluorescence Intensity (MFI), uptake 37C-4C, at 7 nM [6]: 43 MFI
- Mean Fluorescence Intensity (MFI), uptake 37C-4C, at 22 nM [6]: 50 MFI
- Mean Fluorescence Intensity (MFI), uptake 37C-4C, at 76 nM [6]: 73 MFI
- Mean Fluorescence Intensity (MFI), uptake 37C-4C, at 260 nM [6]: 145 MFI
- Mean Fluorescence Intensity (MFI), uptake 37C-4C, at 882 nM [6]: 381 MFI
- Mean Fluorescence Intensity (MFI), uptake 37C-4C, at 3000 nM [6]: 1300 MFI
